From patent US12679878B2, “CRF2 receptor agonists and their use in therapy” (SANOFI, priority 2020, dated 2026)
Starred links: 1 amine or outer side, 2 acyl side, 3 side chain; linkers in the order of their positions; H or OH if unused. Groups on a side chain read outwards from the residue. No end group written: not given here. *: point of attachment. C18 diacid = O=C(O)CCCCCCCCCCCCCCCCC(=O)*; γGlu = O=C(O)[C@H](CCC(=O)[*:2])N[*:1]; Palmitoyl = CCCCCCCCCCCCCCCC(=O)*; AEEA = NCCOCCOCC(=O)O

The binders below were run against human corticotropin-releasing factor 2α (CRF2 α receptor) (human), Q13324 (assay: cell-based or functional assay).
human corticotropin-releasing factor 2α (CRF2 α receptor) (human), Q13324, sequence (Q13324 20-411): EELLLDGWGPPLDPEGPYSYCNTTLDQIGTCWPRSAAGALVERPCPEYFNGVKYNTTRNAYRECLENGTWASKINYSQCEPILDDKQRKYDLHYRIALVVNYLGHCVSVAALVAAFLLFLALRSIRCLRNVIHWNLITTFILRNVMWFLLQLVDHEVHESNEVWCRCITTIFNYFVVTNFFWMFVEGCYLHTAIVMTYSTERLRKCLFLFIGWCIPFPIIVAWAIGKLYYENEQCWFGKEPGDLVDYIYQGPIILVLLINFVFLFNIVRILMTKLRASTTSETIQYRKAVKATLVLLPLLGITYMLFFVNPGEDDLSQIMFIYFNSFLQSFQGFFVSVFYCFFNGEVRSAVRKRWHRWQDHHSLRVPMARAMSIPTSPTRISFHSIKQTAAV

Row | Binder | EC50 [nM], 0% HSA [nM] | EC50 [nM], 0.1% HSA [nM]
1 | IVLSLDVPIKLK([AEEA-AEEA-γGlu-C18 diacid])QILLKQERQKKQREKAKTNKQILAQV-NH2 (N-terminus assumed; SMILES CC[C@H](C)[C@H](N)C(=O)N[C@H](C(=O)N[C@@H](CC(C)C)C(=O)N[C@@H](CO)C(=O)N[C@@H](CC(C)C)C(=O)N[C@@H](CC(=O)O)C(=O)N[C@H](C(=O)N1CCC[C@H]1C(=O)N[C@H](C(=O)N[C@@H](CCCCN)C(=O)N[C@@H](CC(C)C)C(=O)N[C@@H](CCCCNC(=O)COCCOCCNC(=O)COCCOCCNC(=O)CC[C@H](NC(=O)CCCCCCCCCCCCCCCCC(=O)O)C(=O)O)C(=O)N[C@@H](CCC(N)=O)C(=O)N[C@H](C(=O)N[C@@H](CC(C)C)C(=O)N[C@@H](CC(C)C)C(=O)N[C@@H](CCCCN)C(=O)N[C@@H](CCC(N)=O)C(=O)N[C@@H](CCC(=O)O)C(=O)N[C@@H](CCCNC(=N)N)C(=O)N[C@@H](CCC(N)=O)C(=O)N[C@@H](CCCCN)C(=O)N[C@@H](CCCCN)C(=O)N[C@@H](CCC(N)=O)C(=O)N[C@@H](CCCNC(=N)N)C(=O)N[C@@H](CCC(=O)O)C(=O)N[C@@H](CCCCN)C(=O)N[C@@H](C)C(=O)N[C@@H](CCCCN)C(=O)N[C@H](C(=O)N[C@@H](CC(N)=O)C(=O)N[C@@H](CCCCN)C(=O)N[C@@H](CCC(N)=O)C(=O)N[C@H](C(=O)N[C@@H](CC(C)C)C(=O)N[C@@H](C)C(=O)N[C@@H](CCC(N)=O)C(=O)N[C@H](C(N)=O)C(C)C)[C@@H](C)CC)[C@@H](C)O)[C@@H](C)CC)[C@@H](C)CC)C(C)C)C(C)C) [SEQ ID NO: 87] | 0.23 | 16.2
2 | IVLSLDVPIGLK([γGlu-Palmitoyl])QKLLKQQRQRKERQQAEKNARILARV-NH2 (N-terminus assumed; SMILES CCCCCCCCCCCCCCCC(=O)N[C@@H](CCC(=O)NCCCC[C@H](NC(=O)[C@H](CC(C)C)NC(=O)CNC(=O)[C@@H](NC(=O)[C@@H]1CCCN1C(=O)[C@@H](NC(=O)[C@H](CC(=O)O)NC(=O)[C@H](CC(C)C)NC(=O)[C@H](CO)NC(=O)[C@H](CC(C)C)NC(=O)[C@@H](NC(=O)[C@@H](N)[C@@H](C)CC)C(C)C)C(C)C)[C@@H](C)CC)C(=O)N[C@@H](CCC(N)=O)C(=O)N[C@@H](CCCCN)C(=O)N[C@@H](CC(C)C)C(=O)N[C@@H](CC(C)C)C(=O)N[C@@H](CCCCN)C(=O)N[C@@H](CCC(N)=O)C(=O)N[C@@H](CCC(N)=O)C(=O)N[C@@H](CCCNC(=N)N)C(=O)N[C@@H](CCC(N)=O)C(=O)N[C@@H](CCCNC(=N)N)C(=O)N[C@@H](CCCCN)C(=O)N[C@@H](CCC(=O)O)C(=O)N[C@@H](CCCNC(=N)N)C(=O)N[C@@H](CCC(N)=O)C(=O)N[C@@H](CCC(N)=O)C(=O)N[C@@H](C)C(=O)N[C@@H](CCC(=O)O)C(=O)N[C@@H](CCCCN)C(=O)N[C@@H](CC(N)=O)C(=O)N[C@@H](C)C(=O)N[C@@H](CCCNC(=N)N)C(=O)N[C@H](C(=O)N[C@@H](CC(C)C)C(=O)N[C@@H](C)C(=O)N[C@@H](CCCNC(=N)N)C(=O)N[C@H](C(N)=O)C(C)C)[C@@H](C)CC)C(=O)O) [SEQ ID NO: 6] | 0.16 | 0.18
3 | IVLSLDVPIKLK([AEEA-AEEA-γGlu-C18 diacid])QILLKQERQKKQREQAETNKQILAQV-NH2 (N-terminus assumed; SMILES CC[C@H](C)[C@H](N)C(=O)N[C@H](C(=O)N[C@@H](CC(C)C)C(=O)N[C@@H](CO)C(=O)N[C@@H](CC(C)C)C(=O)N[C@@H](CC(=O)O)C(=O)N[C@H](C(=O)N1CCC[C@H]1C(=O)N[C@H](C(=O)N[C@@H](CCCCN)C(=O)N[C@@H](CC(C)C)C(=O)N[C@@H](CCCCNC(=O)COCCOCCNC(=O)COCCOCCNC(=O)CC[C@H](NC(=O)CCCCCCCCCCCCCCCCC(=O)O)C(=O)O)C(=O)N[C@@H](CCC(N)=O)C(=O)N[C@H](C(=O)N[C@@H](CC(C)C)C(=O)N[C@@H](CC(C)C)C(=O)N[C@@H](CCCCN)C(=O)N[C@@H](CCC(N)=O)C(=O)N[C@@H](CCC(=O)O)C(=O)N[C@@H](CCCNC(=N)N)C(=O)N[C@@H](CCC(N)=O)C(=O)N[C@@H](CCCCN)C(=O)N[C@@H](CCCCN)C(=O)N[C@@H](CCC(N)=O)C(=O)N[C@@H](CCCNC(=N)N)C(=O)N[C@@H](CCC(=O)O)C(=O)N[C@@H](CCC(N)=O)C(=O)N[C@@H](C)C(=O)N[C@@H](CCC(=O)O)C(=O)N[C@H](C(=O)N[C@@H](CC(N)=O)C(=O)N[C@@H](CCCCN)C(=O)N[C@@H](CCC(N)=O)C(=O)N[C@H](C(=O)N[C@@H](CC(C)C)C(=O)N[C@@H](C)C(=O)N[C@@H](CCC(N)=O)C(=O)N[C@H](C(N)=O)C(C)C)[C@@H](C)CC)[C@@H](C)O)[C@@H](C)CC)[C@@H](C)CC)C(C)C)C(C)C) [SEQ ID NO: 85] | 0.1 | 3.58
4 | IVLSLDVPIKLK([AEEA-AEEA-γGlu-C18 diacid])QILLKQERQKKQREQAKTNKQILAQV-NH2 (N-terminus assumed; SMILES CC[C@H](C)[C@H](N)C(=O)N[C@H](C(=O)N[C@@H](CC(C)C)C(=O)N[C@@H](CO)C(=O)N[C@@H](CC(C)C)C(=O)N[C@@H](CC(=O)O)C(=O)N[C@H](C(=O)N1CCC[C@H]1C(=O)N[C@H](C(=O)N[C@@H](CCCCN)C(=O)N[C@@H](CC(C)C)C(=O)N[C@@H](CCCCNC(=O)COCCOCCNC(=O)COCCOCCNC(=O)CC[C@H](NC(=O)CCCCCCCCCCCCCCCCC(=O)O)C(=O)O)C(=O)N[C@@H](CCC(N)=O)C(=O)N[C@H](C(=O)N[C@@H](CC(C)C)C(=O)N[C@@H](CC(C)C)C(=O)N[C@@H](CCCCN)C(=O)N[C@@H](CCC(N)=O)C(=O)N[C@@H](CCC(=O)O)C(=O)N[C@@H](CCCNC(=N)N)C(=O)N[C@@H](CCC(N)=O)C(=O)N[C@@H](CCCCN)C(=O)N[C@@H](CCCCN)C(=O)N[C@@H](CCC(N)=O)C(=O)N[C@@H](CCCNC(=N)N)C(=O)N[C@@H](CCC(=O)O)C(=O)N[C@@H](CCC(N)=O)C(=O)N[C@@H](C)C(=O)N[C@@H](CCCCN)C(=O)N[C@H](C(=O)N[C@@H](CC(N)=O)C(=O)N[C@@H](CCCCN)C(=O)N[C@@H](CCC(N)=O)C(=O)N[C@H](C(=O)N[C@@H](CC(C)C)C(=O)N[C@@H](C)C(=O)N[C@@H](CCC(N)=O)C(=O)N[C@H](C(N)=O)C(C)C)[C@@H](C)CC)[C@@H](C)O)[C@@H](C)CC)[C@@H](C)CC)C(C)C)C(C)C) [SEQ ID NO: 86] | 0.11 | 5.7
